Data published in patent CN114057887A.

Molecular target: RBD-His (近岸生物货号:DRA42) (SARS-CoV-2) (UniProt P0DTC2)

“hACE2-Fc融合蛋白 (人ACE2胞外区(ECD)与人IgG1的Fc片段的融合蛋白) (Fc fusion)” showed a 亲和力 of 0.54 nM.
